Measurements taken from patent publication US11402384B2 (Duke University, priority 2015, dated 2022).
Read-outs that look alike come from different tables or passages of the source.

Experiment: Ratiometric fluorescence glucose titration of fluorescent conjugates
Format: binding
Set-up: key to Shape (fluorescence response to glucose) / Change (fluorescence response to glucose): m, monochromatic; d, dichromatic (i.e. spectral shape change); 0, no change
Settings: tsGBP 13C affinity mutants, Acrylodan or Badan conjugates
Method in brief: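 Single-cysteine glucose-binding protein mutants labelled site-specifically with thiol-reactive environmentally sensitive fluorophores; emission spectra recorded during glucose titration to detect ligand-mediated intensity and spectral-shape changes for ratiometric read-out. Temperature- and ligand-dependent fluorescence landscapes acquired in 1K steps; binding fitted to single-site fractional saturation.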

[1] = read-out: Glucose affinity ^appKd
[2] = read-out: Glucose affinity ^trueKd

Molecule | Change (fluorescence response to glucose) | Kd [1] | Kd [2]
D278S A: tsGBP2.13C.D278S (SEQ ID NO: 51) Acrylodan conjugate (conjugate, Acrylodan conjugate; tsGBP2.13C.D278S (13C, 278S double substitution mutant with signal peptide replaced with M and a GGSHHHHHH at C-terminus)) MKLEIFSWWAGDCGPALEALIRLYKQKYPGVEVINATVTGGAGVNAKAVLKTRMLGGDPPDTFQVHAGQELIGTWVVADRMEDLTSLFRQEGWLQAFPKGLIDLLSYKGGIWSVPVNIHRSNVMWYIPAKLKEWGVTPPKTWAEFLATAQTLKRKGLEAPLALGENWTQQHLWESVALATLGADGWNNLWSGKLKFTDPKAVAVWETFGKVLDAANKDAAGLSWQQAVDRVVQGKAAFNIMGDWAAGYMSTTLKLKPGTDFAWTPSPGTSGIFMMLSSSFGLPKGAKNRQNAINWLKLVGSKEGQDTFNPLKGSIAARLDSDPAKYNAYGQSAMKDWKSNRIVGSLVHGAVAPESFMSQFGTVMEIFLQSRNPQAAANAAQAIANQVGLGRGGSHHHHHH | m/d |  | 
D278L A: tsGBP2.13C.D278L (SEQ ID NO: 52) Acrylodan conjugate (conjugate, Acrylodan conjugate; tsGBP2.13C.D278L (13C, 278L double substitution mutant with signal peptide replaced with M and a GGSHHHHHH at C-terminus)) MKLEIFSWWAGDCGPALEALIRLYKQKYPGVEVINATVTGGAGVNAKAVLKTRMLGGDPPDTFQVHAGQELIGTWVVADRMEDLTSLFRQEGWLQAFPKGLIDLLSYKGGIWSVPVNIHRSNVMWYIPAKLKEWGVTPPKTWAEFLATAQTLKRKGLEAPLALGENWTQQHLWESVALATLGADGWNNLWSGKLKFTDPKAVAVWETFGKVLDAANKDAAGLSWQQAVDRVVQGKAAFNIMGDWAAGYMSTTLKLKPGTDFAWTPSPGTSGIFMMLSLSFGLPKGAKNRQNAINWLKLVGSKEGQDTFNPLKGSIAARLDSDPAKYNAYGQSAMKDWKSNRIVGSLVHGAVAPESFMSQFGTVMEIFLQSRNPQAAANAAQAIANQVGLGRGGSHHHHHH | m |  | 
D278S B: tsGBP2.13C.D278S (SEQ ID NO: 51) Badan conjugate (conjugate, Badan conjugate; tsGBP2.13C.D278S (13C, 278S double substitution mutant with signal peptide replaced with M and a GGSHHHHHH at C-terminus)) MKLEIFSWWAGDCGPALEALIRLYKQKYPGVEVINATVTGGAGVNAKAVLKTRMLGGDPPDTFQVHAGQELIGTWVVADRMEDLTSLFRQEGWLQAFPKGLIDLLSYKGGIWSVPVNIHRSNVMWYIPAKLKEWGVTPPKTWAEFLATAQTLKRKGLEAPLALGENWTQQHLWESVALATLGADGWNNLWSGKLKFTDPKAVAVWETFGKVLDAANKDAAGLSWQQAVDRVVQGKAAFNIMGDWAAGYMSTTLKLKPGTDFAWTPSPGTSGIFMMLSSSFGLPKGAKNRQNAINWLKLVGSKEGQDTFNPLKGSIAARLDSDPAKYNAYGQSAMKDWKSNRIVGSLVHGAVAPESFMSQFGTVMEIFLQSRNPQAAANAAQAIANQVGLGRGGSHHHHHH | m/d | 81 mM | 91 mM
D278L B: tsGBP2.13C.D278L (SEQ ID NO: 52) Badan conjugate (conjugate, Badan conjugate; tsGBP2.13C.D278L (13C, 278L double substitution mutant with signal peptide replaced with M and a GGSHHHHHH at C-terminus)) MKLEIFSWWAGDCGPALEALIRLYKQKYPGVEVINATVTGGAGVNAKAVLKTRMLGGDPPDTFQVHAGQELIGTWVVADRMEDLTSLFRQEGWLQAFPKGLIDLLSYKGGIWSVPVNIHRSNVMWYIPAKLKEWGVTPPKTWAEFLATAQTLKRKGLEAPLALGENWTQQHLWESVALATLGADGWNNLWSGKLKFTDPKAVAVWETFGKVLDAANKDAAGLSWQQAVDRVVQGKAAFNIMGDWAAGYMSTTLKLKPGTDFAWTPSPGTSGIFMMLSLSFGLPKGAKNRQNAINWLKLVGSKEGQDTFNPLKGSIAARLDSDPAKYNAYGQSAMKDWKSNRIVGSLVHGAVAPESFMSQFGTVMEIFLQSRNPQAAANAAQAIANQVGLGRGGSHHHHHH | 0 |  | 
K312M B: tsGBP2.13C.K312M (SEQ ID NO: 53) Badan conjugate (conjugate, Badan conjugate; tsGBP2.13C.K312M (13C, 312M double substitution mutant with signal peptide replaced with M and a GGSHHHHHH at C-terminus)) MKLEIFSWWAGDCGPALEALIRLYKQKYPGVEVINATVTGGAGVNAKAVLKTRMLGGDPPDTFQVHAGQELIGTWVVADRMEDLTSLFRQEGWLQAFPKGLIDLLSYKGGIWSVPVNIHRSNVMWYIPAKLKEWGVTPPKTWAEFLATAQTLKRKGLEAPLALGENWTQQHLWESVALATLGADGWNNLWSGKLKFTDPKAVAVWETFGKVLDAANKDAAGLSWQQAVDRVVQGKAAFNIMGDWAAGYMSTTLKLKPGTDFAWTPSPGTSGIFMMLSDSFGLPKGAKNRQNAINWLKLVGSKEGQDTFNPLMGSIAARLDSDPAKYNAYGQSAMKDWKSNRIVGSLVHGAVAPESFMSQFGTVMEIFLQSRNPQAAANAAQAIANQVGLGRGGSHHHHHH | m | 26 mM | 39 mM
